For test [1], the target named is T1, human Jagged-1 DSL-EGF3 fragment (J-1_(DSL-EGF3)), His-tagged, wild type (human, UniProt P78504 187-335). Kind of test: pull-down.
Test [2] deals with T1, human Jagged-1 DSL-EGF3 fragment …. Put plainly: SPR. A general note: Surface plasmon resonance follows binding to a sensor surface in real time, without labels.

T1 sequence (P78504 187-335): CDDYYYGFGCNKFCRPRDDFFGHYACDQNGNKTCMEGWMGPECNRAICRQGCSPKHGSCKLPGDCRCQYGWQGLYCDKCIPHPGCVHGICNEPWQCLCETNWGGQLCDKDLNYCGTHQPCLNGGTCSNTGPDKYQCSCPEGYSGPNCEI

B1: human Notch-1 EGF domains 11-13 (N-1_(11-13)) with C-terminal BirA-tag, biotinylated (domain or fragment)
chain: QDVDECSLGANPCEHAGKCINTLGSFECQCLQGYTGPRCEIDVNECVSNPCQNDATCLDQIGEFQCICMPGYEGVHCEVNTDECASSPCLHNGRCLDKINEFQCECPTGFTGHLCQ
modifications: biotin on the C-terminal tag
Regarding B1, the binding result in test [1] is given as “binds”.

B2: human Notch-1 EGF domains 11-13 (N-1_(11-13)) without the BirA-tag (domain or fragment)
chain: QDVDECSLGANPCEHAGKCINTLGSFECQCLQGYTGPRCEIDVNECVSNPCQNDATCLDQIGEFQCICMPGYEGVHCEVNTDECASSPCLHNGRCLDKINEFQCECPTGFTGHLCQ
Take B2: the binding result in test [2] was “binds”.

For the origin of these results see PMC2669539 (Nature structural & molecular biology, 2008).
